Literature values as cited in patent publication US7514409B2, “VLA-4 antagonists” (Merck & Co., Inc., priority 2004, dated 2009).

Target: T1, VLA-4 (Homo sapiens, UniProt P13612)
T1 construct: host or cells: circulating VLA-4-bearing leukocytes of trial subjects (in vivo)
Settings: early clinical trials

natalizumab: humanized monoclonal antibody against α4
lymphocytosis (a surrogate marker for blockade of VLA-4 function): observed | receptor occupancy: > 80%
